Assay results as given in publication PMC7793522.

Target: synthetic peptide on H-2Kb (mouse)
Experiment: data from [108]; method not given; soluble, other

Substance: YAe62
- Kd: 15 µM
